This passage reports dwell time of the bound state, percent of oligomers seen as double rings and stoichiometry N results from PMC5684232.

In test [1] the target is human proteasome α7 subunit, wild type (self-assembled homo-tetradecamer) (human) (UniProt P25788). Put plainly: high-speed atomic force microscopy (HS-AFM); α7 adsorbed on APTES-mica, α6 added to the observation buffer to 1 μM; 20 mM Tris-HCl (pH 8.0), 150 mM NaCl; more than 20 min after the addition of α6; 10 fps, at most 1000 frames (100 s).
Test [2] has the same target. Put plainly: high-speed atomic force microscopy (HS-AFM); α7 alone adsorbed on bare mica; 20 mM Tris-HCl (pH 8.0), 150 mM NaCl; tapping mode.
Test [3] has the same target. In words: high-speed atomic force microscopy (HS-AFM); α7 alone adsorbed on APTES-mica; 20 mM Tris-HCl (pH 8.0), 150 mM NaCl; tapping mode.

Where “and” joins values, the source holds several entries; their conditions need not be identical. Identical values can stand only once.

As for “human proteasome α6 subunit, short isoform (from UniProt P25786 1-263) (natural protein)”, in test [1], the dwell time of the bound state is above 100 s.
On to “human proteasome α7 subunit, wild type (self-assembled homo-tetradecamer) (from UniProt P25788 1-255) (natural protein)”, for which the percent of oligomers seen as double rings was found to be 67% in test [2] and 21% in test [3]. For the same substance, in test [3], the stoichiometry N was 14 and 7.

In general, stoichiometry N refers to a count of units in the complex or per binding partner.
